Source: publication doi:10.1101/460097
Values belong to the substance of their own block, whether it stands above or below them.

Assays:
[1] = target: mouse (Mus musculus) PCDH15 EC10-MAD12, refolded from bacteria (mouse (Mus musculus)); experiment: SEC-SAXS
[2] = target: mouse (Mus musculus) PCDH15 EC10-MAD12, refolded from bacteria (mouse (Mus musculus)); experiment: SEC-MALS
[3] = target: pig (Sus scrofa) PCDH15 EC10-MAD12 (pig (Sus scrofa)); experiment: SEC-SAXS
[4] = target: pig (Sus scrofa) PCDH15 EC10-MAD12 (pig (Sus scrofa)); experiment: SEC-MALS
[5] = target: pig (Sus scrofa) PCDH15 EC10-MAD12 (pig (Sus scrofa)); experiment: AUC
[6] = target: mouse (Mus musculus) PCDH15 EC10-MAD12 produced in mammalian cells (mouse (Mus musculus)); experiment: SEC-MALS
[7] = target: mouse (Mus musculus) PCDH15 EC10-MAD12 produced in mammalian cells (mouse (Mus musculus)); experiment: AUC

Substance: mouse (Mus musculus) PCDH15 EC10-MAD12, refolded from bacteria (domain or fragment)
- stoichiometry N [1]: 2
- stoichiometry N [2]: 2

- stoichiometry N [3]: 2
- stoichiometry N [4]: 2
- stoichiometry N [5]: 2
Substance: pig (Sus scrofa) PCDH15 EC10-MAD12 (domain or fragment)

- stoichiometry N [6]: 2
- stoichiometry N [7]: 2
Substance: mouse (Mus musculus) PCDH15 EC10-MAD12 produced in mammalian cells (domain or fragment)
